Source: patent publication US20110287023A1 (AstraZeneca / MedImmune, published 2011)

Tests used:
[1] = target: T1, HMG1 B Box peptide amino acids 150-183; assay: ELISA, HMG1 B Box peptide 150-183 coated at 10 ug/ml, antibody titrated, OD 450
T1 peptide: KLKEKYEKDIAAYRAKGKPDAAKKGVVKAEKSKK
Procedure: (§1) The plate was then blocked with 4% milk powder dissolved in PBS at 37° C. for 1 hour. The blocking solution was removed and replaced with human anti-HMG1 antibodies at various concentrations (see FIGS. 5A-B). […] HRP activity was detected with Sureblue HRP substrate (KPL). Plates were read at 450 nm using a Kinetic Microplate Reader (Molecular Devices). […] After washing and blocking with 1% BSA in PBS, the biotinylated peptides were individually added into the avidin coated wells and incubated for 30 min at room temperature. The serial diluted antibody G4, S16 and S6 at the initial concentration at 10 μg/ml were then transferred into the wells followed by adding mouse anti human IgG-HRP conjugate (Pierce). Detection was accomplished by adding 50 μl of tetramethylbenzidine (TMB) substrate (KPL) and the absorbance was read at 450 nm.

[2] = target: T2, recombinant HMG1 produced in E. coli as a calmodulin binding protein (CBP) fusion (human); assay: BIAcore 3000, mAb amine-coupled to CM5, HMG1 injected, steady-state model
T2 construct: also called rHMG1; rHMGB1
Procedure: HMG1 Binding Affinity via BIAcore Analysis: All experiments were performed on a BIAcore 3000 instrument (BIAcore, Inc., Piscataway, N.J.). Briefly, each mAb was immobilized to a CM5 sensor chip using a standard amine coupling chemistry. Separately a reference (control) flow cell was also prepared. Two-fold, serial dilutions of HMG1 in instrument buffer were sequentially injected at a slow flow rate over the individual mAb and reference flow-cell surfaces. Following the binding and dissociation of HMG1, the mAbs surfaces were regenerated with a brief pulse of 1M NaCl-50 mM NaOH. At the end of each experiment, the binding curves were evaluated using a steady-state model available through the BIAevaluation software supplied by BIAcore, Inc. (Piscataway, N.J.).

[3] = target: T3, HMGB1 in human brain tissue of multiple sclerosis plaques (human, UniProt P09429 1-215); assay: staining of human brain tissue
T3 construct: whole, on cells; tissue staining; also called HMGB1 in MS plaques
T3 sequence (looked up): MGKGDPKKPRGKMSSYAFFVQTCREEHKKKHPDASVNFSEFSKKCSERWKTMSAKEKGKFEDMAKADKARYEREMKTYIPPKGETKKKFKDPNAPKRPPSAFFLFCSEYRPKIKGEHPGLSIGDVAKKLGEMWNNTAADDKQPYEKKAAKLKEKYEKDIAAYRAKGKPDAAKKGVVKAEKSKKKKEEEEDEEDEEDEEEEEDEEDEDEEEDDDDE

[4] = target: T4, HMG1 B Box peptide amino acids 91-169; assay: ELISA, HMG1 B Box peptide 91-169 coated at 10 ug/ml, antibody titrated, OD 450
T4 construct: also called HMG1 peptide 91-169
T4 peptide: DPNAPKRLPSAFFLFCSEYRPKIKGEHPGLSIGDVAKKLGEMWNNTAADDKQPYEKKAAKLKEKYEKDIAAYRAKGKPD
Procedure: as §1

[5] = target: T2, recombinant HMG1 produced in E. coli as …; assay: cell-based or functional assay
[6] = target: T5, HMG1 purified from calf (bovine) thymus (bovine, UniProt P10103 2-215); assay: direct ELISA, calf thymus HMGB1 coated at 5 ug/mL, antibody at 10 ug/mL, anti-human kappa/lambda-HRP, OD 490
T5 construct: also called Calf thymus HMGB1; thymus HMG1
T5 sequence (looked up): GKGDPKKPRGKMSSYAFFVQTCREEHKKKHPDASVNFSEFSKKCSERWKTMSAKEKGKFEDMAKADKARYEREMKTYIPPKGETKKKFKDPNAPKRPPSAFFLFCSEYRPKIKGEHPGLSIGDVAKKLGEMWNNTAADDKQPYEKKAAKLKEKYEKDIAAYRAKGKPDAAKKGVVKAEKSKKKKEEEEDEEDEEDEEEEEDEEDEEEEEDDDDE
Procedure: (§2) Binding to HMG1 vs. HMG2: Ultra high-binding ELISA plates (ThermoLab systems, #3855) were coated with either 5 ug/mL of Calf thymus HMGB1 or HMBG2 diluted in 10 mM Phosphate buffered saline (PBS), pH 7.2 and incubate overnight at 4 degrees. The plates were washed twice with Ca and Mg free PBS and 100 microliters of anti-HMGB1 antibody diluted in 10 mM PBS, pH 7.2+1% bovine serum albumin (BSA) to a final concentration of 10 ug/mL was added to each well and the plates were incubated 1 hour at room temperature. The wells were washed three times with 100 μl of PBS, pH 7.2. HRP labeled goat-anti-human IgG Kappa-chain (KPL, #14-10-10) and goat-anti-human IgG Lambda-chain (KPL, #14-10-11) were diluted in 10 mM PBS+1% BSA 1:1000 and 100 μl were added to each well and incubated for 1 hour at room temperature. The wells were then washed three times with 100 μl of PBS, pH 7.2. OPD substrate (Pierce chemical company, #34006) was prepared following the manufacturers instructions and 100 μl of prepared substrate was added to each well and the plates incubated at room temperature in the dark for 20-30 minutes. The reaction was stopped with the addition of 100 μl of 2M H₂SO₄, and the plates read on a plate reader at a wavelength of 490 nm.

[7] = target: T1, HMG1 B Box peptide amino acids 150-183; assay: ELISA, HMG1 B Box peptide 150-183 coated at 10 ug/ml, antibody titrated, anti-human IgG-HRP, OD 450
Procedure: as §1

[8] = target: T4, HMG1 B Box peptide amino acids 91-169; assay: ELISA, HMG1 B Box peptide 91-169 coated at 10 ug/ml, antibody titrated, anti-human IgG-HRP, OD 450
Procedure: as §1

[9] = target: T6, HMG2 coated on ELISA plates (Bos taurus (Bovine), UniProt P40673 2-209); assay: direct ELISA, HMGB2 coated at 5 ug/mL, antibody at 10 ug/mL, anti-human kappa/lambda-HRP, OD 490
T6 construct: also called HMGB2; HMBG2
T6 sequence: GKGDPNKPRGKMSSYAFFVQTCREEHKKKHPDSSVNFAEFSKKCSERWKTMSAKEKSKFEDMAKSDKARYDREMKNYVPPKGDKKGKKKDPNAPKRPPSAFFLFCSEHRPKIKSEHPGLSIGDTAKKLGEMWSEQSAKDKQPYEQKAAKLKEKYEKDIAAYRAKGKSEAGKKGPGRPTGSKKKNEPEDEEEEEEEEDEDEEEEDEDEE
Procedure: as §2

[10] = target: T7, mouse RAGE/Fc fusion protein (mouse, UniProt Q62151 24-342, limits assumed); assay: ELISA (right panel): RAGE-Fc immobilized, HMGB1 titrated in the presence of 0.03 µM CpG-A
T7 construct: not shown: Fc part, not described
T7 sequence (Q62151 24-342 limits assumed): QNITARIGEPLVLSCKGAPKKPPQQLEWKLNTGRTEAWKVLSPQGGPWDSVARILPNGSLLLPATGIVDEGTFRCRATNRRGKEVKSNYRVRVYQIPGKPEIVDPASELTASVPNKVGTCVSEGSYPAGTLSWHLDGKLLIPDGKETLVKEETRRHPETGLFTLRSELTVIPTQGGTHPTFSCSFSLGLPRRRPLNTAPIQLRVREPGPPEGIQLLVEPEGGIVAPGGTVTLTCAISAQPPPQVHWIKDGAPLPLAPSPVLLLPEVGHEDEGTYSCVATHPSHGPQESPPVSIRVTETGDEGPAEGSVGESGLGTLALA

Binder | binding result [1] | Kd [2] [nM] | binding result [3] | binding result [4] | IC50 IL-6 [5] [nM] | IC50 NO [5] [µg/mL] | binding result [6] | binding result [7] | binding result [8] | binding result [9] | EC50 (read off the curve) [10] [nM]
human anti-HMG1 antibody G16 (antibody, IgG1, V domains shown, full length IgG1 made from a human Fab phage clone) VH: EVQLLESGGGLVQPGGSLRLSCAASGFTFSWYKMTWVRQAPGKGLEWVSSISPSGGFTSYADSVKGRFTISRDNSKNTLYLQMNSLRAEDTAVYYCARDLDIRHAFDIWGQGTMVTVSS VL: DIQMTQSPGTLSLSPGESGTLSCRASESVSSRHFAWYQQKPGQAPRLLIYGASSRPTGIPDRFSGSGSGTDFTLTLSRLEPEDFAVYFCQYYGSSPYTFGGGTKVEMK | no binding (tested: 10 ug/ml (log 1.0)) | 22 | binds | no binding (tested: 10 ug/ml (log 1.0)) | 1.06 | 22 | – | – | – | – | –
human anti-HMG1 antibody S12 (antibody, IgG1, V domains shown, full length IgG1 made from a human Fab phage clone) VH: EVQLLESGGGLVQPGGSLRLSCAASGFTFSKYIMHWVRQAPGKGLEWVSGIVPSGGLTEYADSVKGRFTISRDNSKNTLYLQMNSLRAEDTATYYCAKEIFGQFDYWGQGTLVTVSS VL: AQSALTQPPSVSAAPRQRVTISCSGSTSNIGNNAVTWYQYFPGKAPKLLIYSDNQRPSGVPDRFSGSKSGTSASLAITGLQAEDEADYYCQSYDRGLSVVFGGGTKLTVL | – | – | – | – | 1.67 | – | binds | binds | binds | binds | –
complex of thymus HMGB1 with CpG-A DNA (other, bovine, UniProt P10103 2-215, looked up, also called HMGB1/CpG complex; HMGB1/CpG A complex) GKGDPKKPRGKMSSYAFFVQTCREEHKKKHPDASVNFSEFSKKCSERWKTMSAKEKGKFEDMAKADKARYEREMKTYIPPKGETKKKFKDPNAPKRPPSAFFLFCSEYRPKIKGEHPGLSIGDVAKKLGEMWNNTAADDKQPYEKKAAKLKEKYEKDIAAYRAKGKPDAAKKGVVKAEKSKKKKEEEEDEEDEEDEEEEEDEEDEEEEEDDDDE | – | – | – | – | – | – | – | – | – | – | ~100
